Laboratory results from patent US20120231006A1 (Amgen, published 2012).

How the values were obtained:
human Orai1 [1] = target: T1, human Orai1 (human, UniProt Q96D31 1-301); experiment: FACS Kd, AM1-CHO/hOrai1/hSTIM1-YFP cells
T1 construct: on AM1-CHO/hOrai1/hSTIM1-YFP, AM1/hOrai1, HEK-293 transfectants, endogenous on Jurkat and blood cells; in Westerns from cell lysates; also called hOrai1; CRACM1
Experimental: The equilibrium plates were centrifuged at 500 g for 3 minutes and cell pellets were washed twice with 200 μL of ice cold FACS buffer (1×D-PBS+2% FBS). The cells were then incubated with a secondary antibody, goat anti-human Fc Cy5 at 5 μg/mL and 100 μL per well for 1 h on ice in the dark. Following the incubation, the cells were washed twice with 200 μL of ice-cold FACS buffer before flow cytometry analysis. The GeoMean values gated on live cell population measure the bound [Ab]. The inverse of the GeoMean values that reflects theoretical free [Ag] in the equilibrium solution was then calculated. The inverse values of the GeoMean read were used in KinExA® Pro software for analysis and Kd calculation for each antibody. The free [Ag] measure was plotted against the starting concentration of titrating component and from these plots at two different cell concentrations the Kd was obtained from curve fitting using n-curve analysis in KinExA Pro software. […] Shown in Table 14 (below) are the equilibrium dissociation constant (Kd) values of invented mAbs determined by FACS Kd measurement.

human Orai1 [2] = target: T1, human Orai1; experiment: cell-based or functional assay

T1 sequence (Q96D31 whole entry): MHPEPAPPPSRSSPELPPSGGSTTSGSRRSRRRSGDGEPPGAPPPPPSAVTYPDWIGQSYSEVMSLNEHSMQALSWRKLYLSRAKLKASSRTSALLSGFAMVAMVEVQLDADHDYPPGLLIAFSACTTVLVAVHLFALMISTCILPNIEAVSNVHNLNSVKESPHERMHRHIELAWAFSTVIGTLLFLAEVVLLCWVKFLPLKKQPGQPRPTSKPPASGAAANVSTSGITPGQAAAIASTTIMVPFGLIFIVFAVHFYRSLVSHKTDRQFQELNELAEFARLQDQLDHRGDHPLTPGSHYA

Kd (human Orai1 [1]) [nM] | IC50 IFN-γ, whole blood Donor A, recombinant mAb (human Orai1 [2]) [nM] | IC50 IFN-γ, whole blood Donor B, recombinant mAb (human Orai1 [2]) [nM] | IC50 IL-2, whole blood Donor A, recombinant mAb (human Orai1 [2]) [nM] | IC50 IL-2, whole blood Donor B, recombinant mAb (human Orai1 [2]) [nM] | Binder
0.483 | 2.67 | 1.17 | 3.17 | 0.8 | mAb 5D7.2 (antibody, human IgG2, lambda, V domains shown, fully human IgG2 lambda, Campaign 2, recombinant) VH: QVQLVQSGAEVKKPGASVKVSCKASGYTFTDYYMNWVRQAPGQGLEWMGWINPNSGGTKYAQKFQGRVTMTRDTSIRTAYMELSRLRSDDTAVYYCAREYGGNSDWFDPWGQGTLVTVSS VL: QSVLTQPPSVSGAPGQRVTISCTGSSSNIGAGYDVHWYQQSPGTAPKLLIYGNSNRPSGVPDRFSGSKSGTSASLAITGLQAEDEADYYCQSYDNRLSDSVVIGGGTKLTVQG
0.735 | 0.8 | 42.9 | 1.34 | 1.14 | mAb 5B5.1 (antibody, human IgG2, lambda, V domains shown, fully human IgG2 lambda, Campaign 2, recombinant; same chains as 5B5.2) VH: QVQLVQSGAEVKKPGASVKVSCKASGYTFTDYYINWVRQAPGQGLEWMGWINPNSGGTDYAQKFQGRVTMTRDTSIRTAYMELNRLTSDDTAVYYCAREYGGYEDWFDPWGQGTLVTVSS VL: QSVLTQPPSVSGAPGQRVTISCTGSNSNIGAGFDVHWYQQLPGTVPKLLIYGNNNRPSGVPDRFSGSKSGTSASLAITGLQAEDEADYYCQSYDSRLTVFGGGTKLTVLG
0.649 | 0.1 | 2.55 | 0.87 | 1.59 | mAb 5H3.1 (antibody, human IgG2, lambda, V domains shown, fully human IgG2 lambda, Campaign 2, recombinant) VH: QVQLVQSGAEVKKPGASVKVSCKASGYTFTDYYMNWVRQAPGQGLEWMGWINPNSGGTKYAQKFQGRVTMTRDTSIRTAYMELSRLRSDDTAVYYCAREYGGNSDWFDPWGQGTLVTVSS VL: QSVLTQPPSVSGAPGQRVTISCTGSSSNIGAGYDVHWYQQLPGTAPKLLIYGNSNRPSGVPDRFSGSKSGTSASLAITGLQAEDEADYYCQSYDNRLSDSVVIGGGTKLAVQG
